Data published in PMC6213154, “Mapping the Contact Sites of the Escherichia coli Division-Initiating Proteins FtsZ and ZapA by BAMG Cross-Linking and Site-Directed Mutagenesis” (International Journal of Molecular Sciences, 2018).

B1: FtsZ (Filamenting temperature sensitive Z), Escherichia coli (natural protein, E. coli, UniProt P0A9A6 1-383, looked up)
chain: MFEPMELTNDAVIKVIGVGGGGGNAVEHMVRERIEGVEFFAVNTDAQALRKTAVGQTIQIGSGITKGLGAGANPEVGRNAADEDRDALRAALEGADMVFIAAGMGGGTGTGAAPVVAEVAKDLGILTVAVVTKPFNFEGKKRMAFAEQGITELSKHVDSLITIPNDKLLKVLGRGISLLDAFGAANDVLKGAVQGIAELITRPGLMNVDFADVRTVMSEMGYAMMGSGVASGEDRAEEAAEMAISSPLLEDIDLSGARGVLVNITAGFDLRLDEFETVGNTIRAFASDNATVVIGTSLDPDMNDELRVTVVATGIGMDKRPEITLVTNKQVQQPVMDRYQQHGMAPLTQEQKPVAKVVNDNAPQTAKEPDYLDIPAFLRKQAD
notes: FtsZ, Escherichia coli; tryptic peptides up to the C-terminal KQAD (residues 380-383) were identified; In the cross-linking experiments a 1:1 mixture of 14N- and 15N-labelled FtsZ was used (about 95% 15N); Polymerised with GTP into protofilaments; also called ^14N-FtsZ; ^15N-FtsZ; source: E. coli BL21(DE3) pRRE6, isolated as described [52]

How the values were obtained:
[1] = target: the molecule itself; assay: cross-linking; BAMG, LC-MS/MS; bundling conditions: FtsZ (14N:15N 1:1) without ZapA, 10 mM CaCl2, 30 uM GTP, polymerization buffer pH 7.5, 30 °C
[2] = target: B1; assay: cross-linking; BAMG (100-150 uM) added 30-60 s after GTP, 30 min at 30 °C; trypsin digest, enrichment on ARCO resin, SCX, LC-MS/MS; 3.4 uM FtsZ (14N:15N 1:1), 6.8 uM ZapA, 50 mM HEPES pH 7.5, 50 mM KCl, 5 mM MgCl2, 60 uM GTP; no Ca2+; details: both partners purified
[3] = target: the molecule itself; assay: as above

| binding result [2] | Binder | binding result [1] | stoichiometry N [3] |
| --- | --- | --- | --- |
| – | B1 | binds | – |
| binds | ZapA (Z associated protein A), Escherichia coli (natural protein, E. coli, ZapA, Escherichia coli; source: isolated using a His-tagged version, His-tag removed by proteolysis, as described [8]) MSAQPVDIQIFGRSLRVNCPPDQRDALNQAADDLNQRLQDLKERTRVTNTEQLVFIAALNISYELAQEKAKTRDYAASMEQRIRMLQQTIEQALLEQGRITEKTNQNFE | – | 4 |
